# Test results reported in the supplement of paper PMC9112550, “Optimization of the antimicrobial peptide Bac7 by deep mutational scanning” (BMC Biology, 2022).
# Tested on: Escherichia coli TOP10
# Assay: shrunken log2 fold change of peptide-encoding DNA abundance (4.5 h post-induction vs induction); higher = less antimicrobial activity (less host growth inhibition)
# Conditions: time post-induction: 4.5 h; library: site-saturation at positions 5, 18, 19, 20
# 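Note: peptides expressed intracellularly from a pBAD plasmid library in pooled LB shake-flask culture, induced with 0.3% L-arabinose, DNA abundance read by NGS, three biological replicates, DESeq2 with apeglm shrinkage.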
row,Sequence,shrunken log2 fold change
1,RRIRFRPPRLPRPRPRPIRYPRP,-0.125
2,RRIRPRPPRLPRPRPRPCLFPRP,-0.357
3,RRIRHRPPRLPRPRPRPWFPPRP,-0.379
4,RRIRGRPPRLPRPRPRPHGGPRP,0.631
5,RRIRGRPPRLPRPRPRPWMYPRP,-0.0352
6,RRIRMRPPRLPRPRPRPMTLPRP,0.113
7,RRIRHRPPRLPRPRPRPRHFPRP,-0.0239
8,RRIRARPPRLPRPRPRPYDSPRP,-0.0577
9,RRIRQRPPRLPRPRPRPLVIPRP,-0.682
10,RRIRRRPPRLPRPRPRPSVKPRP,0.155
11,RRIRIRPPRLPRPRPRPEPYPRP,0.0464
12,RRIRMRPPRLPRPRPRPPGSPRP,0.904
13,RRIRVRPPRLPRPRPRPAPNPRP,0.334
14,RRIRDRPPRLPRPRPRPWCWPRP,0.036
15,RRIRFRPPRLPRPRPRPRYEPRP,-0.598
16,RRIRFRPPRLPRPRPRPSQQPRP,-0.277
17,RRIRERPPRLPRPRPRPAWDPRP,0.0257
18,RRIRGRPPRLPRPRPRPLARPRP,0.91
19,RRIRLRPPRLPRPRPRPCVMPRP,0.025
20,RRIRYRPPRLPRPRPRPACLPRP,-0.211
21,RRIRTRPPRLPRPRPRPNECPRP,-0.0286
22,RRIRERPPRLPRPRPRPLFKPRP,-0.543

row,Sequence,shrunken log2 fold change
1,RRIRSRPPRLPRPRPRPSDWPRP,0.0164
2,RRIRCRPPRLPRPRPRPPHLPRP,0.079
3,RRIRHRPPRLPRPRPRPSKWPRP,-0.452
4,RRIRDRPPRLPRPRPRPCPAPRP,-0.156
5,RRIRERPPRLPRPRPRPQQLPRP,-0.178
6,RRIRERPPRLPRPRPRPFTPPRP,0.116
7,RRIRQRPPRLPRPRPRPSMDPRP,-0.271
8,RRIRVRPPRLPRPRPRPMAMPRP,-0.00688
9,RRIRMRPPRLPRPRPRPVLCPRP,0.182
10,RRIRYRPPRLPRPRPRPPRAPRP,0.403
11,RRIRKRPPRLPRPRPRPHYSPRP,-0.257
12,RRIRGRPPRLPRPRPRPMLIPRP,0.312
13,RRIRKRPPRLPRPRPRPGAIPRP,0.238
14,RRIRHRPPRLPRPRPRPPVHPRP,0.00286
15,RRIRYRPPRLPRPRPRPGGWPRP,0.645
16,RRIRARPPRLPRPRPRPELEPRP,1.88
17,RRIRLRPPRLPRPRPRPACWPRP,0.498
18,RRIRNRPPRLPRPRPRPWTYPRP,-0.351
19,RRIRVRPPRLPRPRPRPKVYPRP,-0.433
20,RRIRQRPPRLPRPRPRPTQTPRP,-0.00783
21,RRIRQRPPRLPRPRPRPYTRPRP,-0.0062
22,RRIRSRPPRLPRPRPRPQGWPRP,0.469

row,Sequence,shrunken log2 fold change
1,RRIRERPPRLPRPRPRPNHHPRP,-0.845
2,RRIRIRPPRLPRPRPRPYVYPRP,-0.144
3,RRIRPRPPRLPRPRPRPPGFPRP,0.847
4,RRIRFRPPRLPRPRPRPFGGPRP,-0.0524
5,RRIRVRPPRLPRPRPRPSKDPRP,-0.563
6,RRIRTRPPRLPRPRPRPNCPPRP,-0.0894
7,RRIRARPPRLPRPRPRPISWPRP,0.508
8,RRIRPRPPRLPRPRPRPLRIPRP,0.0628
9,RRIRWRPPRLPRPRPRPAYRPRP,-0.00641
10,RRIRQRPPRLPRPRPRPNDPPRP,-0.0265
11,RRIRIRPPRLPRPRPRPIARPRP,0.136
12,RRIRCRPPRLPRPRPRPQDYPRP,-0.176
13,RRIRFRPPRLPRPRPRPEHFPRP,-0.213
14,RRIRKRPPRLPRPRPRPGCSPRP,0.289
15,RRIRGRPPRLPRPRPRPEVVPRP,0.918
16,RRIRVRPPRLPRPRPRPMMQPRP,0.0134
17,RRIRFRPPRLPRPRPRPRLSPRP,-0.194
18,RRIRERPPRLPRPRPRPLWSPRP,-0.125
19,RRIRQRPPRLPRPRPRPPVMPRP,-0.285
20,RRIRTRPPRLPRPRPRPGDNPRP,-0.00277
21,RRIRVRPPRLPRPRPRPTNWPRP,0.202
22,RRIRMRPPRLPRPRPRPLVWPRP,0.955

row,Sequence,shrunken log2 fold change
1,RRIRWRPPRLPRPRPRPGHAPRP,0.234
2,RRIRHRPPRLPRPRPRPPWKPRP,0.174
3,RRIRPRPPRLPRPRPRPFMHPRP,0.0361
4,RRIRERPPRLPRPRPRPMLIPRP,-0.266
5,RRIRMRPPRLPRPRPRPAHAPRP,1.16
6,RRIRARPPRLPRPRPRPKPEPRP,0.223
7,RRIRQRPPRLPRPRPRPACYPRP,-0.18
8,RRIRGRPPRLPRPRPRPHSNPRP,0.117
9,RRIRCRPPRLPRPRPRPDYRPRP,-0.0343
10,RRIRERPPRLPRPRPRPCCIPRP,0.0508
11,RRIRPRPPRLPRPRPRPYWPPRP,-0.143
12,RRIRIRPPRLPRPRPRPGLEPRP,-0.0336
13,RRIRHRPPRLPRPRPRPCYYPRP,-0.258
14,RRIRFRPPRLPRPRPRPKWFPRP,0.045
15,RRIRYRPPRLPRPRPRPLEFPRP,-0.89
16,RRIRCRPPRLPRPRPRPRFNPRP,-0.288
17,RRIRGRPPRLPRPRPRPMMGPRP,0.409
18,RRIRHRPPRLPRPRPRPAYYPRP,-0.624
19,RRIRPRPPRLPRPRPRPFQGPRP,-0.0115
20,RRIRNRPPRLPRPRPRPVDTPRP,0.033
21,RRIRERPPRLPRPRPRPSDTPRP,-0.287
22,RRIRSRPPRLPRPRPRPIQVPRP,0.0973

row,Sequence,shrunken log2 fold change
1,RRIRGRPPRLPRPRPRPVKIPRP,0.16
2,RRIRDRPPRLPRPRPRPVNWPRP,0.188
3,RRIRMRPPRLPRPRPRPCGTPRP,1.97
4,RRIRNRPPRLPRPRPRPLMAPRP,0.176
5,RRIRDRPPRLPRPRPRPNEPPRP,-0.0233
6,RRIRCRPPRLPRPRPRPHVPPRP,-0.0309
7,RRIRMRPPRLPRPRPRPIYMPRP,-0.0618
8,RRIRQRPPRLPRPRPRPQHDPRP,-0.477
9,RRIRCRPPRLPRPRPRPINHPRP,-0.607
10,RRIRARPPRLPRPRPRPIGWPRP,0.488
11,RRIRGRPPRLPRPRPRPPPWPRP,1.41
12,RRIRFRPPRLPRPRPRPVRGPRP,0.576
13,RRIRRRPPRLPRPRPRPCWDPRP,0.234
14,RRIRTRPPRLPRPRPRPCWDPRP,-0.192
15,RRIRMRPPRLPRPRPRPQMTPRP,1.2
16,RRIRPRPPRLPRPRPRPLPQPRP,0.286
17,RRIRKRPPRLPRPRPRPHSTPRP,-0.0637
18,RRIRPRPPRLPRPRPRPRRMPRP,0.297
19,RRIRQRPPRLPRPRPRPVKKPRP,-0.0152
20,RRIRRRPPRLPRPRPRPVYFPRP,-0.267
21,RRIRDRPPRLPRPRPRPTVCPRP,0.662
